One block for each molecule: values may come before it.
Legend:
[1] = target: OXPHOS complex III dimer (human (endogenous in fibroblasts, 143B and HepG2)) (UniProt P00156); assay: native gel or EMSA; BN-PAGE and Western blot of isolated mitochondria (fibroblasts, 143B cells) solubilised in 1% (v/v) Triton X-100; anti-UQCRC1 antibody
[2] = target: OXPHOS complex III dimer (human (endogenous in fibroblasts, 143B and HepG2)) (UniProt P00156); assay: native gel or EMSA; mtDNA-encoded proteins radiolabeled with [35S]-methionine/cysteine in 143B cells in the presence of cycloheximide, 2 h pulse, chase 0, 3 or 24 h; mitochondria isolated, BN-PAGE or 2D native-PAGE
[3] = target: the molecule itself; assay: native gel or EMSA; BN-PAGE and Western blot of isolated mitochondria (fibroblasts, 143B cells) solubilised in 1% (w/v) digitonin; anti-MCAD or anti-NDUFA9 antibody
[4] = target: the molecule itself; assay: native gel or EMSA; 35S-labelled in vitro translated protein incubated at 37 °C with freshly isolated 143B mitochondria (5 to 60 min), mitochondria solubilised in 1% (v/v) TX-100 or 1% (w/v) digitonin, BN-PAGE

- stoichiometry N [1]: 2
Molecule: OXPHOS complex III dimer (from UniProt P00156 1-380; P31930 35-480; P22695 15-453)
- stoichiometry N [2]: 2

B1: Medium-chain acyl-Coenzyme A dehydrogenase (enzyme, human (endogenous in 143B and HepG2), UniProt P11310 26-421, looked up)
chain: KANRQREPGLGFSFEFTEQQKEFQATARKFAREEIIPVAAEYDKTGEYPVPLIRRAWELGLMNTHIPENCGGLGLGTFDACLISEELAYGCTGVQTAIEGNSLGQMPIIIAGNDQQKKKYLGRMTEEPLMCAYCVTEPGAGSDVAGIKTKAEKKGDEYIINGQKMWITNGGKANWYFLLARSDPDPKAPANKAFTGFIVEADTPGIQIGRKELNMGQRCSDTRGIVFEDVKVPKENVLIGDGAGFKVAMGAFDKTRPVVAAGAVGLAQRALDEATKYALERKTFGKLLVEHQAISFMLAEMAMKVELARMSYQRAAWEVDSGRRNTYYASIAKAFAGDIANQLATDAVQILGGNGFNTEYPVEKLMRDAKIYQIYEGTSQIQRLIVAREHIDKYKN
notes: Medium-chain acyl-CoA dehydrogenase (MCAD, EC 1.3.8.7); 421 amino acid precursor, processed in the mitochondrial matrix into a mature 396 amino acid (43.6 kDa) protein; also called MCAD; Medium-chain acyl-CoA dehydrogenase; source: endogenous, mitochondria isolated from 143B cells or HepG2 cells, solubilised in detergent
- stoichiometry N [3]: 4

B2: Medium-chain acyl-Coenzyme A dehydrogenase (enzyme, UniProt P11310 26-421, looked up)
chain: B1 chain
modifications: [35S]-methionine/cysteine
notes: MCAD cDNA translated as the precursor; after import a proteinase K resistant mature form is seen; 421 amino acid precursor, mature 396 amino acids; Imported into mitochondria that hold endogenous MCAD, so the labelled ~175 kDa tetramer may be mixed with endogenous chains; also called MCAD; radiolabeled MCAD; source: in vitro translated (pGEM4Z, TnT Coupled Reticulocyte Lysate System), imported …
- stoichiometry N [4]: 4
